Values quoted from earlier work, collected in publication PMC6814268.

What was measured:
[1] = biological target: CEACAM1 IgV (Homo sapiens) (UniProt P13688)
[2] = biological target: CEACAM5 IgV (Homo sapiens) (UniProt P06731)

| Substance | Kd [1] | Kd [2] |
| --- | --- | --- |
| CEACAM1 IgV (from UniProt P13688) | 450 nM |  |
| CEACAM5 IgV (from UniProt P06731) |  | 800 nM |
